Results from IntAct's records for PubMed 22916205.

B1: "Na(+)/H(+) exchange regulatory cofactor-like protein nrfl-1" (Caenorhabditis elegans), G5EDM4-1 (parent)
chain: MVHIPSDVTPPRLCVVEKLNGENEYGYNLHAEKGRGQFVGTVDPDSPAERGGLITGDRIFAVNGHSIIGENHKKVVERIKANPNRCEMLVISEEGAKWYNENNVQITLDLPNIERVSPMSKETPVFVPPPPPPTDAMPYLPRLAELNKGTPDQEFGFNLHAERGRGHFIGTVDAGGIGEKAGLEAGQRIVGVNGQLIYPTTGHKEVVALIKKDTMKTTLLVASEDVDKYHKDHNIAYSWDNVERVDTRPVINVETHHHHEEVSVPKSNGYDVPPLNPHSIQVNEEREISKMTTTTRTETITNSNSAYQYKESSTAYDAYATPPVDSNDLMDEVFGRVNLPGVTMSSHTEVLPPTDDISSVSSLSSHRESAVDVPVSHQYVPSYATESHQKHEQHSQTHHHHHQHQQPSPLSNGSSHGYAASSTSGYDDDDIYHLSAREARERLRMKNRKHHLHEMSLNEKYQLVSNM
partner: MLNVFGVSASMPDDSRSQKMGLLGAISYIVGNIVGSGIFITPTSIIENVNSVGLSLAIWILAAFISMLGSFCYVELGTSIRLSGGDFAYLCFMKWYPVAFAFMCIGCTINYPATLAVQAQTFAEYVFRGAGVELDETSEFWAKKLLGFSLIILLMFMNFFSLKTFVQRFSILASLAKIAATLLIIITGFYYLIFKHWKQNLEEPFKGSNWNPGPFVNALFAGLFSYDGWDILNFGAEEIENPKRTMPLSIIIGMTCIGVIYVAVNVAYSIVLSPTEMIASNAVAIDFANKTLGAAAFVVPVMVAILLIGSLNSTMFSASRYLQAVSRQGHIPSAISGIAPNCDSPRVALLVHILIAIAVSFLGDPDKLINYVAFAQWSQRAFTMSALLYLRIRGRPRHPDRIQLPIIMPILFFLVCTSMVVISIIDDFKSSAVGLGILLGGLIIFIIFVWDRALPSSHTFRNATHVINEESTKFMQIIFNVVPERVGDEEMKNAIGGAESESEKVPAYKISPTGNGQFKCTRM

Variants of: B1
Details: with aat6_caeel aat-6, Q22397

Row | effect of a mutation on the interaction | Variant
1 | with no effect | G26A;Y27A
2 | disrupting interaction strength | G26A;Y27A;E154A;F155A
3 | decreasing interaction strength | E154A;F155A
